Measurements published in US20180305452A1.

Columns and labels:
Experiment in all cases: flow cytometry, protein L-biotin then streptavidin-PE on LV-transduced human primary T cells
[1] = target: CAR19 construct 1494 (LTG1494): SP-CD19binder-CD8link-CD8tm-signaling
Target sequence (chain, as listed by the source): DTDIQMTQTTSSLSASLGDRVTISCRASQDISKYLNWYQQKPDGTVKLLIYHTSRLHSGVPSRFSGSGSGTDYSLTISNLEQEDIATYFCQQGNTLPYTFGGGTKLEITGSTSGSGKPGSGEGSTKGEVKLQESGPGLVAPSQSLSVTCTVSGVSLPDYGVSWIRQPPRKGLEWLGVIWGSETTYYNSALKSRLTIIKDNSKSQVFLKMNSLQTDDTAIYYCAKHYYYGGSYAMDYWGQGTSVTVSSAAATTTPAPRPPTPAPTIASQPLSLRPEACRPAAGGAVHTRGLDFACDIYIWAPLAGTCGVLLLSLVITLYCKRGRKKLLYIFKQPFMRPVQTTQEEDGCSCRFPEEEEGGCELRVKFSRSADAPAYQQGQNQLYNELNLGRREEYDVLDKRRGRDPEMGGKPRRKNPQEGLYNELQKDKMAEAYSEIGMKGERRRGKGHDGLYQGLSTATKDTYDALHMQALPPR

[2] = target: CAR19 construct 1712 (LTG1712): SP-CD19binder-TNFRSF16link-TNFRSF16tm-signaling
Target sequence (chain, as listed by the source): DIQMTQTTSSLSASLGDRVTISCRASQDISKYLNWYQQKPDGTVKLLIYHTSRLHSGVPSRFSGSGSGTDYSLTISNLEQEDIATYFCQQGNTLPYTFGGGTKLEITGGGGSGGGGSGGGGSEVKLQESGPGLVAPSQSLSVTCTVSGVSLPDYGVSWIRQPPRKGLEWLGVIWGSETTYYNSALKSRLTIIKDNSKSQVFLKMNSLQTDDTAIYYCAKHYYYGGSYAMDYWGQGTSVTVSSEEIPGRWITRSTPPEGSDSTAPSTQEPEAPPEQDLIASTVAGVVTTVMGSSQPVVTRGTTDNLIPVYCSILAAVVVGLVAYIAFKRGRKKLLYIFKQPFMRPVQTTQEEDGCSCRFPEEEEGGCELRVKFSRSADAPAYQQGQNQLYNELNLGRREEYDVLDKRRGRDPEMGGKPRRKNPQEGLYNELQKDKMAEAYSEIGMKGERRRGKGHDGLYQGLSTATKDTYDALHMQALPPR

[3] = target: CAR19 construct 1713 (LTG1713): SP-CD19binder-Truncated TNFRSF19link-TNFRSF19tm-signaling
Target sequence (chain, as listed by the source): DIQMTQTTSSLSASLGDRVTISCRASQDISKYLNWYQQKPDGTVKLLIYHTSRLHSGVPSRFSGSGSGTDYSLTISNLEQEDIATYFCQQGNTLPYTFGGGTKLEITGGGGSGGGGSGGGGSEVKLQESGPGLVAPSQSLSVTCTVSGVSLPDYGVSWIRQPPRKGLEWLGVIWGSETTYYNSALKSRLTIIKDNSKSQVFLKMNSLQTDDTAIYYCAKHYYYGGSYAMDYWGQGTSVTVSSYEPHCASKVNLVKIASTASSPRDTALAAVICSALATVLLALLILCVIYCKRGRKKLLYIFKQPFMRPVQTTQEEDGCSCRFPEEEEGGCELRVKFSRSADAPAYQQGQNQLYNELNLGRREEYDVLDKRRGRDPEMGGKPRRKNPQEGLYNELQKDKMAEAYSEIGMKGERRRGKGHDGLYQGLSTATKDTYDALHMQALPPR

Substance: protein L-biotin conjugate
- percentage CAR on T cell surface (cells stained) [1]: 90.4%
- percentage CAR on T cell surface (cells stained) [2]: 86.4%
- percentage CAR on T cell surface (cells stained) [3]: 0.3%
